For one protein, Km, kcat and kcat/Km results are on record in PMC3657141, “Directed evolution to re-adapt a co-evolved network within an enzyme” (Journal of Biotechnology, 2012).

Substrate in the series: CCC=O
The experiment in a line: purified protein. Type of series: biochemical, Escherichia coli. The conditions noted are these: 50 mM LiHPA, 2.4 mM TPP, 9 mM MgCl2, 250 mM NaCl, 50 mM Tris-HCl, pH 7.0, 21 °C.

B1: transketolase (TK) (Escherichia coli K-12; D469S) (protein)
chain: MSSRKELANAIRALSMDAVQKAKSGHPGAPMGMADIAEVLWRDFLKHNPQNPSWADRDRFVLSNGHGSMLIYSLLHLTGYDLPMEELKNFRQLHSKTPGHPEVGYTAGVETTTGPLGQGIANAVGMAIAEKTLAAQFNRPGHDIVDHYTYAFMGDGCMMEGISHEVCSLAGTLKLGKLIAFYDDNGISIDGHVEGWFTDDTAMRFEAYGWHVIRDIDGHDAASIKRAVEEARAVTDKPSLLMCKTIIGFGSPNKAGTHDSHGAPLGDAEIALTREQLGWKYAPFEIPSEIYAQWDAKEAGQAKESAWNEKFAAYAKAYPQEAAEFTRRMKGEMPSDFDAKAKEFIAKLQANPAKIASRKASQNAIEAFGPLLPEFLGGSADLAPSNLTLWSGSKAINEDAAGNYIHYGVREFGMTAIANGISLHGGFLPYTSTFLMFVEYARNAVRMAALMKQRQVMVYTHDSIGLGESGPTHQPVEQVASLRVTPNMSTWRPCDQVESAVAWKYGVERQDGPTALILSRQNLAQQERTEEQLANIARGGYVLKDCAGQPELIFIATGSEVELAVAAYEKLTAEGVKARVVSMPSTDAFDKQDAAYRESVLPKAVTARVAVEAGIADYWYKYVGLNGAIVGMTTFGESAPAELLFEEFGFTVDNVVAKAKELL
notes: 680 residues; homodimer
Take B1: the Km (usually the concentration of substrate that gives half-maximal velocity) is 70.8 mM; the kcat (commonly the number of substrate molecules converted per active site and unit of time at saturation) was 0.952 ± 0.0567 s⁻¹; the kcat/Km (in general, the second-order rate constant that governs catalysis at low substrate concentration) came to 13.5 ± 0.333 M⁻¹ s⁻¹.
